Source: patent publication US20190309074A1, “DEGLYCOSYLATED ANTIBODY SPECIFICALLY BINDING TO CLEC14A AND USES THEREOF” (WOORI TECHNOLOGIES CORPORATION, priority 2016, published 2019)

What was measured:
[1] = test system: HUVEC activity; experiment: endothelial cell activation (VCAM-1, ICAM-1 expression); format: cell-based, human
Description: In addition, the morphology of HUVEC was evaluated in the presence or absence of deglyco C1 IgG using immunocytochemistry. […] In order to evaluate effects of deglyco C1 IgG on the activity of endothelial cells, which is an initial inflammatory response to a harmful stimulus, HUVECs were treated with deglyco C1 IgG, and expression of an endothelial cell activity marker including VCAM-1 (vascular cell adhesion molecule-1) and ICAM-1 (intercellular cell adhesion molecule-1) was measured to monitor HUVEC activity. Human tumor necrosis factor-alpha (hTNFα) was used as a positive control group for endothelial cell activity.

[2] = test system: HUVEC migration; experiment: HUVEC migration (wound healing) assay; format: cell-based, human; conditions: % of MOCK
Description: Genetic mutation introduced during antibody engineering induces unpredicted defects, resulting in deterioration in antibody functions. In order to isolate antibodies for suppressing clec14a-mediated angiogenesis, tube formation and endothelial cell migration assay using human umbilical vein endothelial cells (HUVECs) were conducted in the presence or absence of clone 1 IgG and deglyco C1-C4 IgGs. Among the four types of deglyco IgGs, deglyco C1 IgG was selected as a candidate antibody. […] In addition, it can be seen that deglyco C1 IgG includes desired alterations (N32R/N33C/S34G) in the amino acid sequence in light chain CDR1.
In order to compare in vitro angiogenesis suppression effect between deglyco C1 IgG and bevacizumab, tube formation and migration assay were conducted in the presence or absence of parent antibody IgG, deglyco C1 IgG or bevacizumab as a positive control group.

[3] = test system: HUVECs; experiment: HUVEC viability (cell counting Kit-8); format: cell-based, human; conditions: 2 days
Description: In order to evaluate effects of deglyco C1 IgG on toxicity of endothelial cells, after treatment with deglyco C1 IgG, viability of HUVECs was measured. Viability was measured in accordance with the manufacturer's manual through cell counting Kit-8 (#CK04-13, Dojindo Laboratories, Kumamoto, Japan).

[4] = test system: U87 human glioma; experiment: U87 tumor growth; format: in vivo
[5] = test system: VEGF-dependent tube formation; experiment: VEGF-dependent HUVEC tube formation assay; format: cell-based, human; conditions: 20 μg ml^−1, 18 hours
Description: In order to investigate in vitro effects of deglyco C1 IgG on VEGF-dependent angiogenesis, HUVECs were treated with VEGF in the presence or absence of deglyco C1 IgG, and then HUVEC tube formation assay was conducted. 150 μl of Matrigel was added to a 48-well plate and incubated at 37° C. for 30 minutes. HUVEC (10^5) cultured in EGM-2 were collected, seeded on the Matrigel-coated plate and incubated at 37° C. for 18 hours in the presence or absence of clone 1 IgG, parent antibody IgG, deglycosylated clec14a-CTLD IgG or bevacizumab. HUVECs cultured in VEGF-containing EBM (endothelial cell basal medium) were seeded to the Matrigel-coated plate and incubated at 37° C. for 18 hours in the presence or absence of deglyco C1 IgG (20 μg ml^−1).

[6] = test system: VEGF-dependent blood vessel growth in rat aorta; experiment: ex vivo rat aortic ring assay; conditions: cultured in combination with VEGF
Description: In order to further investigate effects of deglyco C1 IgG on VEGF-dependent angiogenesis, ex vivo rat aortic ring assay was conducted in the presence or absence of deglyco C1 IgG and bevacizumab. Blood vessels were almost not grown in the rat aorta in endothelial basal medium (EBM), whereas most blood vessels were grown in the rat aorta under VEGF expression conditions.

[7] = test system: HEK293F cells transfected with wild-type clec14a; experiment: clec14a-mediated cell-cell contact (cell aggregate) assay; format: cell-based, human
Text: In order to identify the mechanism by which deglyco C1 IgG acts on angiogenesis, the number of cell aggregates formed from HEK293F cells transfected with wild-type clec14a and cultured in the presence or absence of parent antibody IgG or deglyco C1 IgG was monitored to conduct functional assay on clec14a-mediated cell-cell contacts.
The parent antibody IgG was used as a positive control group to specifically block clec14a-mediated cell-cell contacts.

[8] = aggregation and purification amounts of deglycosylated antibodies, before and after φ; format: physicochemical; conditions: based on 100 ml culture
[9] = target: T1, hclec14-CTLD and hclec14a-ECD interaction (Homo sapiens, UniProt Q86T13); experiment: ELISA: interaction of hclec14a-CTLD-Fc-HRP with hclec14a-ECD; format: binding; conditions: increasing antibody concentration
T1 construct: hclec14a-CTLD-Fc-HRP was incubated together with purified hclec14a-ECD; hclec14a-ECD (extracellular domain of human clec14a); myc (C)
T1 sequence (Q86T13 33-173 limits assumed): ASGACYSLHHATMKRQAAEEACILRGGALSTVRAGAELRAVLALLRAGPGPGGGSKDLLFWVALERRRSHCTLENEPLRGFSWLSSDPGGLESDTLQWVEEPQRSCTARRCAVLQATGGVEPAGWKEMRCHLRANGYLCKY
Description: In addition, hclec14a-CTLD-Fc-HRP was incubated together with purified hclec14a-ECD in the presence of an increasing concentration of parent antibody IgG or deglyco C1 IgG, or in the absence thereof.

[10] = test system: HUVECs; experiment: flow cytometry binding to endothelial cells; format: cell-based, human
Description: In order to identify whether or not deglyco C1 IgG binds to human endothelial cells, flow cytometry was conducted with HUVECs. […] In addition, in order to measure binding affinity of C1 IgG to hclec14a-ECD (extracellular domain of human clec14a), binding affinity of antibody-antigen binding was measured in real time. It can be seen that deglyco C1 IgG has a KD constant (equilibrium dissociation constant) of 6 nM, which is similar to that of parent antibody IgG (FIG. 3C).

B1: deglyco C1 IgG: deglycosylated clone 1 IgG; light chain CDR1 TGSSSNIGRCGVT (SEQ ID NO: 2), N32R/N33C/S34G (antibody, V domains shown)
VH: EVQLVESGGGLVQPGGSLRLSCAVSGFTFSGYDMSWIRQAPGKGLEWVAGIYPDGGNTYYADSVKGRFTISRDDSKNTFYLQMNSLRAEDTAVYYCARGATWWVLGPFDYWGQGTLVTVSS
VL: DIQLTQSPSSLSASVGDRVTITCTGSSSNIGRCGVTWYQQKPGKAPKLLIYADSHRPSGVPSRFSGSGSGTDFTLTISSLQPEDFATYYCGAWDDSLSGYVFGQGTKVEIKR
HUVEC activity (VCAM-1, ICAM-1 expression) [1]: almost no impact | inhibitory activity against HUVEC migration [2]: most excellent inhibitory activity | inhibitory activity against HUVEC migration ([2]; listed as Deglyco C1 IgG): inhibited migration to a similar extent to bevacizumab | viability of HUVECs [3]: did not exhibit cytotoxic effects | body weight ([4]; U87 tumor model): no impact on body weight | tumor size of U87 cells ([4]; measured weekly for one month): significantly reduces the tumor sizes | VEGF-dependent tube formation [5]: removed VEGF-dependent tube formation significantly and almost perfectly | number of blood vessels grown in the rat aorta [6]: reduced the number of blood vessels grown in the rat aorta | inhibition of clec14a-mediated cell-cell contacts (cell aggregates) [7]: inhibitory efficacy | Final um, After φ [8]: 4.821 mg | Final um, Before φ [8]: 4.859 mg | Fraction1, After φ [8]: 0.009 mg | Fraction1, Before φ [8]: 0.011 mg | Fraction2, After φ [8]: 3.763 mg | Fraction2, Before φ [8]: 3.792 mg | Fraction3, After φ [8]: 0.921 mg | Fraction3, Before φ [8]: 0.938 mg | Fraction4, After φ [8]: 0.128 mg | Fraction4, Before φ [8]: 0.129 mg | suppression of interaction between hclec14-CTLD and hclec14a-ECD [9]: directly suppressed | binding to surfaces of HUVECs [10]: specifically bound to the surfaces of HUVECs
